What all share (experiment): TAP-MS, N-terminal GS tag
Assay [1] deals with PHD finger protein (AT1G54390) (Arabidopsis thaliana).
In assay [2] the target is protein coding (AT5G14240) (Arabidopsis thaliana).
Assay [3] concerns the target T1, SE (SERRATE) (Arabidopsis thaliana).
T1 sequence (Q9ZVD0 1-720, looked up): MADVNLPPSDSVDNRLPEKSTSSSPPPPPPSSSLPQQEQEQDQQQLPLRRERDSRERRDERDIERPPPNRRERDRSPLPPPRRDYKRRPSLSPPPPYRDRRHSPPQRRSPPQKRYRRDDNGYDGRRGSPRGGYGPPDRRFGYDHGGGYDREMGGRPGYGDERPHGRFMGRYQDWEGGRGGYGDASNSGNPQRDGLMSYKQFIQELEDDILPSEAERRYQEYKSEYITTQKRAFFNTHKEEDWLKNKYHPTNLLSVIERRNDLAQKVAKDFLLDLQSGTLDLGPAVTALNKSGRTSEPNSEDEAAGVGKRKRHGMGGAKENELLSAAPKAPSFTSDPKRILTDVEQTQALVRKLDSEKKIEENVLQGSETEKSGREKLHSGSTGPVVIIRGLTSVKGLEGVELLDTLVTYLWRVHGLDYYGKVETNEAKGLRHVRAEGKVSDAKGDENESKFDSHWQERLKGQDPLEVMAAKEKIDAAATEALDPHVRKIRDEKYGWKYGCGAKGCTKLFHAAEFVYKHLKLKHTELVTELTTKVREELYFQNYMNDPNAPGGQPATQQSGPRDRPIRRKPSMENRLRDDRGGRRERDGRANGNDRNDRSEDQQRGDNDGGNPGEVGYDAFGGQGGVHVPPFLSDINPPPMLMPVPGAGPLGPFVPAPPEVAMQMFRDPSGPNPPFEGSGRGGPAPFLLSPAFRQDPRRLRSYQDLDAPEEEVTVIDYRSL

In assay [4] the target is T2, actin-related protein 7 (ARP7) (Arabidopsis thaliana).
T2 sequence (Q8L4Y5 1-363, looked up): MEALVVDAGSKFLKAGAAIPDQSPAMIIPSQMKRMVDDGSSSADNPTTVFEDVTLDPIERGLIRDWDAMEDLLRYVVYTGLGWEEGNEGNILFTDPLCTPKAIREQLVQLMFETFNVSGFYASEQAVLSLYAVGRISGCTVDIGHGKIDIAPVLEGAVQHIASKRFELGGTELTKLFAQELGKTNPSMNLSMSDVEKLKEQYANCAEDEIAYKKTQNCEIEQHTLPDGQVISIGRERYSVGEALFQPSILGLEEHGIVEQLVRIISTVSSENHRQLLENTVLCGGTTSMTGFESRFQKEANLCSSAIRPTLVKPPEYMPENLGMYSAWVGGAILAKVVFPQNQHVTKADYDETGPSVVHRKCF

In assay [5] the target is chaperonin (AT5G26360) (Arabidopsis thaliana).
For assay [6], the target named is T3, TAF14B, GAS41 (Arabidopsis thaliana).
T3 sequence (Q9FH40 1-268, looked up): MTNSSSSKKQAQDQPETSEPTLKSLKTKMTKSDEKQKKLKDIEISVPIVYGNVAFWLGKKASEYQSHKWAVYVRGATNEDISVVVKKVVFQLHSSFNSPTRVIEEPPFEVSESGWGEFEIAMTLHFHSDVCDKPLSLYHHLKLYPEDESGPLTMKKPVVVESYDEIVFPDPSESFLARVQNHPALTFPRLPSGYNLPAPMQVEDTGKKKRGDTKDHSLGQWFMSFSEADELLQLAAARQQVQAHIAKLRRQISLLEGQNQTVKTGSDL

Assay [7] concerns the target unknown, similar to At5g55210 (AT4G22320) (Arabidopsis thaliana).
In assay [8] the target is chaperonin (AT3G02530) (Arabidopsis thaliana).
In assay [9] the target is chaperonin, similar to At3g03960 (AT3G18190) (Arabidopsis thaliana).
The target of assay [10] is chaperonin, similar to At3g18190 (AT3G03960) (Arabidopsis thaliana).
Assay [11] addresses TCP-1 (Arabidopsis thaliana T-complex protein 1 alpha subunit) (Arabidopsis thaliana).
In assay [12] the target is T4, actin-related protein 4 (ARP4) (Arabidopsis thaliana).
T4 sequence (Q84M92 1-441, looked up): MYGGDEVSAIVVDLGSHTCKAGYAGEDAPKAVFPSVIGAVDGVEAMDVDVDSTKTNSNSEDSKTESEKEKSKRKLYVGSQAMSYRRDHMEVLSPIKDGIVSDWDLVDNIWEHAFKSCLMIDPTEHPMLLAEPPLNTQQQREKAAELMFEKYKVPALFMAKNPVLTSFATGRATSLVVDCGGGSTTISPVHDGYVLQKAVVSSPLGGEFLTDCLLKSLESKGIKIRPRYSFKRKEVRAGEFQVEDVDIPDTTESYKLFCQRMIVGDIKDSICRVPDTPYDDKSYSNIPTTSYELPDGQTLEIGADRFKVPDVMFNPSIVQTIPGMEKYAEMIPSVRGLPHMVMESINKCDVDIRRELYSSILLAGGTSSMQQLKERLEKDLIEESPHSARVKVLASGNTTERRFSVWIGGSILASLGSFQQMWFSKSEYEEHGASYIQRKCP

TCP-1 (Arabidopsis thaliana T-complex protein 1 alpha subunit) (Arabidopsis thaliana), sequence (P28769 2-545, one chain of several): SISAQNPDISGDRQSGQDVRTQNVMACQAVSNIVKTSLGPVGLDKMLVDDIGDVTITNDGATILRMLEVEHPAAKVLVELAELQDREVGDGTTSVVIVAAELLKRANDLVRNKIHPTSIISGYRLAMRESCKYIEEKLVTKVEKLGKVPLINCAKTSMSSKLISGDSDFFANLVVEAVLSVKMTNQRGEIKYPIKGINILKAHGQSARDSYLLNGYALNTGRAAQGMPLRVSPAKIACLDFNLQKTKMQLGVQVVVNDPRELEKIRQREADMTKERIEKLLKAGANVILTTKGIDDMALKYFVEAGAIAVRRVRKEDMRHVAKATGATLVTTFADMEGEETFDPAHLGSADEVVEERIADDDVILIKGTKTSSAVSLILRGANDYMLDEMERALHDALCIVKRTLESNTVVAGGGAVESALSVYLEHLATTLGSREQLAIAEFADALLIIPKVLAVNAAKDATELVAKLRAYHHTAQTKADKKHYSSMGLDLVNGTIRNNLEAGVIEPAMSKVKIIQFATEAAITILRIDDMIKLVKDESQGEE

B1: GS-ARP4 (protein, UniProt Q84M92 1-441, looked up)
Actin-related protein 4: MYGGDEVSAIVVDLGSHTCKAGYAGEDAPKAVFPSVIGAVDGVEAMDVDVDSTKTNSNSEDSKTESEKEKSKRKLYVGSQAMSYRRDHMEVLSPIKDGIVSDWDLVDNIWEHAFKSCLMIDPTEHPMLLAEPPLNTQQQREKAAELMFEKYKVPALFMAKNPVLTSFATGRATSLVVDCGGGSTTISPVHDGYVLQKAVVSSPLGGEFLTDCLLKSLESKGIKIRPRYSFKRKEVRAGEFQVEDVDIPDTTESYKLFCQRMIVGDIKDSICRVPDTPYDDKSYSNIPTTSYELPDGQTLEIGADRFKVPDVMFNPSIVQTIPGMEKYAEMIPSVRGLPHMVMESINKCDVDIRRELYSSILLAGGTSSMQQLKERLEKDLIEESPHSARVKVLASGNTTERRFSVWIGGSILASLGSFQQMWFSKSEYEEHGASYIQRKCP
modifications: N-terminal GS tag
Turning to B1, the N-GS (times co-purified) was 1 in [1]; 2 in assay [2]; 1 in [3]; 2 in assay [4]; 2 in [5]; 2 in assay [6].

B2: GS-ARP7 (protein, UniProt Q8L4Y5 1-363, looked up)
Actin-related protein 7: MEALVVDAGSKFLKAGAAIPDQSPAMIIPSQMKRMVDDGSSSADNPTTVFEDVTLDPIERGLIRDWDAMEDLLRYVVYTGLGWEEGNEGNILFTDPLCTPKAIREQLVQLMFETFNVSGFYASEQAVLSLYAVGRISGCTVDIGHGKIDIAPVLEGAVQHIASKRFELGGTELTKLFAQELGKTNPSMNLSMSDVEKLKEQYANCAEDEIAYKKTQNCEIEQHTLPDGQVISIGRERYSVGEALFQPSILGLEEHGIVEQLVRIISTVSSENHRQLLENTVLCGGTTSMTGFESRFQKEANLCSSAIRPTLVKPPEYMPENLGMYSAWVGGAILAKVVFPQNQHVTKADYDETGPSVVHRKCF
modifications: N-terminal GS tag
Turning to B2, the N-GS (times co-purified) in assay [7], in assay [8], in assay [9], in assay [2], in assay [10] and in [11] was 2 throughout. Further, the values for the N-GS (times co-purified) in [12] and in [5] were 1 and 2, respectively.

The values are drawn from US20120324602A1.
